Measured values: IntAct's records for PubMed 39009827

B1: BCL11 transcription factor A (Homo sapiens), Q9H165 (parent)
chain: MSRRKQGKPQHLSKREFSPEPLEAILTDDEPDHGPLGAPEGDHDLLTCGQCQMNFPLGDILIFIEHKRKQCNGSLCLEKAVDKPPSPSPIEMKKASNPVEVGIQVTPEDDDCLSTSSRGICPKQEHIADKLLHWRGLSSPRSAHGALIPTPGMSAEYAPQGICKDEPSSYTCTTCKQPFTSAWFLLQHAQNTHGLRIYLESEHGSPLTPRVGIPSGLGAECPSQPPLHGIHIADNNPFNLLRIPGSVSREASGLAEGRFPPTPPLFSPPPRHHLDPHRIERLGAEEMALATHHPSAFDRVLRLNPMAMEPPAMDFSRRLRELAGNTSSPPLSPGRPSPMQRLLQPFQPGSKPPFLATPPLPPLQSAPPPSQPPVKSKSCEFCGKTFKFQSNLVVHRRSHTGEKPYKCNLCDHACTQASKLKRHMKTHMHKSSPMTVKSDDGLSTASSPEPGTSDLVGSASSALKSVVAKFKSENDPNLIPENGDEEEEEDDEEEEEEEEEEEEELTESERVDYGFGLSLEAARHHENSSRGAVVGVGDESRALPDVMQGMVLSSMQHFSEAFHQVLGEKHKRGHLAEAEGHRDTCDEDSVAGESDRIDDGTVNGRGCSPGESASGGLSKKLLLGSPSSLSPFSKRIKLEKEFDLPPAAMPNTENVYSQWLAGYAASRQLKDPFLSFGDSRQSPFASSSEHSSENGSLRFSTPPGELDGGISGRSGTGSGGSTPHISGPGPGRPSSKEGRRSDTCEYCGKVFKNCSNLTVHRRSHTGERPYKCELCNYACAQSSKLTRHMKTHGQVGKDVYKCEICKMPFSVYSTLEKHMKKWHSDRVLNNDIKTE
B2: Cell division control protein 45 homolog (Homo sapiens), O75419 (parent)
chain: MFVSDFRKEFYEVVQSQRVLLFVASDVDALCACKILQALFQCDHVQYTLVPVSGWQELETAFLEHKEQFHYFILINCGANVDLLDILQPDEDTIFFVCDTHRPVNVVNVYNDTQIKLLIKQDDDLEVPAYEDIFRDEEEDEEHSGNDSDGSEPSEKRTRLEEEIVEQTMRRRQRREWEARRRDILFDYEQYEYHGTSSAMVMFELAWMLSKDLNDMLWWAIVGLTDQWVQDKITQMKYVTDVGVLQRHVSRHNHRNEDEENTLSVDCTRISFEYDLRLVLYQHWSLHDSLCNTSYTAARFKLWSVHGQKRLQEFLADMGLPLKQVKQKFQAMDISLKENLREMIEESANKFGMKDMRVQTFSIHFGFKHKFLASDVVFATMSLMESPEKDGSGTDHFIQALDSLSRSNLDKLYHGLELAKKQLRATQQTIASCLCTNLVISQGPFLYCSLMEGTPDVMLFSRPASLSLLSKHLLKSFVCSTKNRRCKLLPLVMAAPLSMEHGTVTVVGIPPETDSSDRKNFFGRAFEKAAESTSSRMLHNHFDLSVIELKAEDRSKFLDALISLLS

Variants of: B1
Settings: with clh1_human CLTC
For C48F, the “effect of a mutation on the interaction” value was “increasing interaction strength”.

Variants of: B2
Settings: with ima3_human KPNA4, O00629
Chain of ima3_human KPNA4, O00629 (O00629 whole entry): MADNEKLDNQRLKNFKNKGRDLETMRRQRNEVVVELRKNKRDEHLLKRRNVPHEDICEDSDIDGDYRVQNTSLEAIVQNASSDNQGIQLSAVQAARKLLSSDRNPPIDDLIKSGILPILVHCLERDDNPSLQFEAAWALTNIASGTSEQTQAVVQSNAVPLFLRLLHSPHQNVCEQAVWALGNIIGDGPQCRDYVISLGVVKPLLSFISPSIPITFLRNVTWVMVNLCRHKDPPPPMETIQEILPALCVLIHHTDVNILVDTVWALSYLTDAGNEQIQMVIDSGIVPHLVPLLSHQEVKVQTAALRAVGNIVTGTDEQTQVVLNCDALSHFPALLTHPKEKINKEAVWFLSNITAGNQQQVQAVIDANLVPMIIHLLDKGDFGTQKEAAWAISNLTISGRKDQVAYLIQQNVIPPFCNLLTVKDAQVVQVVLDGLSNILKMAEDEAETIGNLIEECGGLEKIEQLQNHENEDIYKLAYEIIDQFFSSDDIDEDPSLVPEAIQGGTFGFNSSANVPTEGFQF
MFVSDFRKEFYEVVQSQRVLLFVASDVDALCACKILQALFQCDHVQYTLVPVSGWQELETAFLEHKEQFHYFILINCGANVDLLDILQPDEDTIFFVCDTHRPVNVVNVYNDTQIKLLIKQDDDLEVPAYEDIFRDEEEDEEHSGNDSDGSEPSEKCTRLEEEIVEQTMRRRQRREWEARRRDILFDYEQYEYHGTSSAMVMFELAWMLSKDLNDMLWWAIVGLTDQWVQDKITQMKYVTDVGVLQRHVSRHNHRNEDEENTLSVDCTRISFEYDLRLVLYQHWSLHDSLCNTSYTAARFKLWSVHGQKRLQEFLADMGLPLKQVKQKFQAMDISLKENLREMIEESANKFGMKDMRVQTFSIHFGFKHKFLASDVVFATMSLMESPEKDGSGTDHFIQALDSLSRSNLDKLYHGLELAKKQLRATQQTIASCLCTNLVISQGPFLYCSLMEGTPDVMLFSRPASLSLLSKHLLKSFVCSTKNRRCKLLPLVMAAPLSMEHGTVTVVGIPPETDSSDRKNFFGRAFEKAAESTSSRMLHNHFDLSVIELKAEDRSKFLDALISLLS [R157C] was tested, and the “effect of a mutation on the interaction” value was “disrupting interaction strength”.

Variants of: B2
Settings: with ima8_human KPNA7, A9QM74
Chain of ima8_human KPNA7, A9QM74 (A9QM74 whole entry): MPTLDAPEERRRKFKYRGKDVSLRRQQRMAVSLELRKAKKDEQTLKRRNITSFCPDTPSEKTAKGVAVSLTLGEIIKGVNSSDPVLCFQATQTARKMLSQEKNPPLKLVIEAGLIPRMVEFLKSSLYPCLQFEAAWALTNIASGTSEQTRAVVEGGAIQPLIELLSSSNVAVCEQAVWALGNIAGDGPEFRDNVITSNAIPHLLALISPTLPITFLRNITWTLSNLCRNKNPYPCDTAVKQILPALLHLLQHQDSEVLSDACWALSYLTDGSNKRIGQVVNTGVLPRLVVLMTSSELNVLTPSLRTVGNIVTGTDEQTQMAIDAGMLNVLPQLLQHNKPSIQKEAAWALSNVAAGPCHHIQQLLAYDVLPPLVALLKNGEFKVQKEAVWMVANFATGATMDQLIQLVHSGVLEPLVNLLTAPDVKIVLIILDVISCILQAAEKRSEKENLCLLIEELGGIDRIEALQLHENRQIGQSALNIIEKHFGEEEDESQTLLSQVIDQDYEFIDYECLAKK
In the case of MFVSDFRKEFYEVVQSQRVLLFVASDVDALCACKILQALFQCDHVQYTLVPVSGWQELETAFLEHKEQFHYFILINCGANVDLLDILQPDEDTIFFVCDTHRPVNVVNVYNDTQIKLLIKQDDDLEVPAYEDIFRDEEEDEEHSGNDSDGSEPSEKCTRLEEEIVEQTMRRRQRREWEARRRDILFDYEQYEYHGTSSAMVMFELAWMLSKDLNDMLWWAIVGLTDQWVQDKITQMKYVTDVGVLQRHVSRHNHRNEDEENTLSVDCTRISFEYDLRLVLYQHWSLHDSLCNTSYTAARFKLWSVHGQKRLQEFLADMGLPLKQVKQKFQAMDISLKENLREMIEESANKFGMKDMRVQTFSIHFGFKHKFLASDVVFATMSLMESPEKDGSGTDHFIQALDSLSRSNLDKLYHGLELAKKQLRATQQTIASCLCTNLVISQGPFLYCSLMEGTPDVMLFSRPASLSLLSKHLLKSFVCSTKNRRCKLLPLVMAAPLSMEHGTVTVVGIPPETDSSDRKNFFGRAFEKAAESTSSRMLHNHFDLSVIELKAEDRSKFLDALISLLS [R157C], the “effect of a mutation on the interaction” value is reported as “disrupting interaction strength”.

Variants of: B2
Settings: with ima3_human KPNA4, O00629
Remark: another data set of the same source
With MFVSDFRKEFYEVVQSQRVLLFVASDVDALCACKILQALFQCDHVQYTLVPVSGWQELETAFLEHKEQFHYFILINCGANVDLLDILQPDEDTIFFVCDTHRPVNVVNVYNDTQIKLLIKQDDDLEVPAYEDIFRDEEEDEEHSGNDSDGSEPSEKCTRLEEEIVEQTMRRRQRREWEARRRDILFDYEQYEYHGTSSAMVMFELAWMLSKDLNDMLWWAIVGLTDQWVQDKITQMKYVTDVGVLQRHVSRHNHRNEDEENTLSVDCTRISFEYDLRLVLYQHWSLHDSLCNTSYTAARFKLWSVHGQKRLQEFLADMGLPLKQVKQKFQAMDISLKENLREMIEESANKFGMKDMRVQTFSIHFGFKHKFLASDVVFATMSLMESPEKDGSGTDHFIQALDSLSRSNLDKLYHGLELAKKQLRATQQTIASCLCTNLVISQGPFLYCSLMEGTPDVMLFSRPASLSLLSKHLLKSFVCSTKNRRCKLLPLVMAAPLSMEHGTVTVVGIPPETDSSDRKNFFGRAFEKAAESTSSRMLHNHFDLSVIELKAEDRSKFLDALISLLS [R157C] the “effect of a mutation on the interaction” value was “decreasing interaction strength”.
